Laboratory results reported in patent US20200369765A1 (INNATE PHARMA, published 2020).

T1: Human Siglec-5 (human, UniProt O15389 17-551)
T1 construct: Expressed on transfected CHO cells; also called HuSiglec-5
T1 sequence: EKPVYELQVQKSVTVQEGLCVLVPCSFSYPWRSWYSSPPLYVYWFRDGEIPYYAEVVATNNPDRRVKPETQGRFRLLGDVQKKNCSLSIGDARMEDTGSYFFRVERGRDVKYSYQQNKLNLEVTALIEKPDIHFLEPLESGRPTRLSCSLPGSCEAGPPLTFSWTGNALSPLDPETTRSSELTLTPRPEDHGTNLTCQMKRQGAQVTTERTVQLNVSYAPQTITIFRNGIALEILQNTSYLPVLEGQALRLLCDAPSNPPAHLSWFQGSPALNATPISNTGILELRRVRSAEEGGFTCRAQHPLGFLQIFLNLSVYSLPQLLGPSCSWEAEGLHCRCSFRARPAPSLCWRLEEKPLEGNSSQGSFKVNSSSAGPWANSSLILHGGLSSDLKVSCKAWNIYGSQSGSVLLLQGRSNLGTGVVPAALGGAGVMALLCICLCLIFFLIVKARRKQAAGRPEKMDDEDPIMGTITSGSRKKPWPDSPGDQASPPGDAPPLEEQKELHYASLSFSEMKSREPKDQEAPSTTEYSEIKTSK

T2: Human Siglec-11 (human, UniProt Q96RL6 29-698)
T2 construct: Expressed on transfected CHO cells; also called HuSiglec-11
T2 sequence: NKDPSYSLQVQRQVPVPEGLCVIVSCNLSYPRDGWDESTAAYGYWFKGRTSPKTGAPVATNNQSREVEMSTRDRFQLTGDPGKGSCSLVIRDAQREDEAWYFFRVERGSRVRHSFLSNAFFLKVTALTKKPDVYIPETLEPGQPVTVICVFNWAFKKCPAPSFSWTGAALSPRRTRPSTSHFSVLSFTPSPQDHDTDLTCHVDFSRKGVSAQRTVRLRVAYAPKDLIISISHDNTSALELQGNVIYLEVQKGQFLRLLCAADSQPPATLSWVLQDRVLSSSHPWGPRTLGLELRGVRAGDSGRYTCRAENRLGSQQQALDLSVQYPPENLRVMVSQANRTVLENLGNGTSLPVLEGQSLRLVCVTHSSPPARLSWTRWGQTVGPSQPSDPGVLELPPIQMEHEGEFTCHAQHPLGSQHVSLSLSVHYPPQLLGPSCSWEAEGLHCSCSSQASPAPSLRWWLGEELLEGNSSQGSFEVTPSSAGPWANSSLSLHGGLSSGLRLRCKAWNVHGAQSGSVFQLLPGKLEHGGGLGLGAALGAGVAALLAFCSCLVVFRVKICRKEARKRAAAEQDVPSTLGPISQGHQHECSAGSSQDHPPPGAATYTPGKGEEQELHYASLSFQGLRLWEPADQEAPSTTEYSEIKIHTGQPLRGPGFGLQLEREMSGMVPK

T3: Human Siglec-10 (human, UniProt Q96LC7 17-697)
T3 construct: Expressed on transfected CHO cells; also called HuSiglec-10
T3 sequence: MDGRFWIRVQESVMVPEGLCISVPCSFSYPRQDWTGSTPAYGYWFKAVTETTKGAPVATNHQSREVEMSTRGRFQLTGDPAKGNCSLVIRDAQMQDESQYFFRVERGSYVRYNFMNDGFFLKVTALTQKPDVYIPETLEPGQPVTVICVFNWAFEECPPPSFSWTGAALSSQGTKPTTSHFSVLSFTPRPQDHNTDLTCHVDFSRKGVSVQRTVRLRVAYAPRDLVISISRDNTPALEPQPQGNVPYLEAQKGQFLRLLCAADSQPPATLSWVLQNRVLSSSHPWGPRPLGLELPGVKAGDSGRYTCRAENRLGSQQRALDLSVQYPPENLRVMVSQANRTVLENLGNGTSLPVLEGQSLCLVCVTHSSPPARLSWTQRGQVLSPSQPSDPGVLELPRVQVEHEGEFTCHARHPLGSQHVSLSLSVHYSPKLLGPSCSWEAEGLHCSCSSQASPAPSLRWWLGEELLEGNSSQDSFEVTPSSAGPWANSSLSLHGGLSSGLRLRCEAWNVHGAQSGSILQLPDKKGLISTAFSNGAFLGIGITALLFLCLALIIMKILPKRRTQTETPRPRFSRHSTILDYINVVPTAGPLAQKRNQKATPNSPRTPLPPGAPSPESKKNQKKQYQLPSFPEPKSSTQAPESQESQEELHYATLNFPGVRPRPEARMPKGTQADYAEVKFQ


What was measured:
[1] = biological target: T4, Human Siglec-9 N-terminal V-set Ig-like domain (human); test: flow cytometry, HEK293T cells expressing single Siglec-9 domains
T4 construct: expressed on HEK293T cells

[2] = biological target: T5, Human Siglec-12 (human, UniProt Q96PQ1 19-595); test: flow cytometry, CHO transfectants
T5 construct: Expressed on transfected CHO cells; also called HuSiglec-12

[3] = biological target: T6, Human Siglec-8 (human, UniProt Q9NYZ4 17-499); test: flow cytometry, CHO transfectants
T6 construct: Expressed on transfected CHO cells; also called HuSiglec-8

[4] = biological target: T1, Human Siglec-5; test: flow cytometry, CHO transfectants
[5] = biological target: T7, Human Siglec-6 (human, UniProt O43699 27-453); test: flow cytometry, CHO transfectants
T7 construct: Expressed on transfected CHO cells; also called HuSiglec-6

[6] = biological target: T2, Human Siglec-11; test: flow cytometry, CHO transfectants
[7] = biological target: T3, Human Siglec-10; test: flow cytometry, CHO transfectants
[8] = biological target: T8, Human Siglec-3 (human, UniProt P20138 18-364); test: flow cytometry, CHO transfectants
T8 construct: Expressed on transfected CHO cells; also called HuSiglec-3; CD33

[9] = biological target: T9, Human Siglec-9 mutant M2 (human, UniProt Q9Y336 18-463); test: flow cytometry, HEK293T transfectants
T9 construct: Expressed on HEK293T cells; also called Mutant 2

[10] = biological target: T10, Human Siglec-7 (human, UniProt Q9Y286 19-467); test: flow cytometry, CHO transfectants
T10 construct: Expressed on transfected CHO cells; also called huSiglec-7; CD328
Protocol: (§1) Binding of antibodies on human Siglec-7, human Siglec-9 and Cynomolgus Siglec-9 was tested by titration experiment by flow cytometry on CHO cells transfected with human Siglec-7 and human Siglec-9 and Cynomolgus Siglec-9. Cells were incubated 1h in Staining Buffer (SB) with primary antibodies at 20 ug/ml and a series of dilution of 1:5. They were washed three times with SB, then incubated 30 min with a goat F(ab′)² Anti-human IgG (Fc) PE (Beckman Coulter #1M05510), and washed twice with SB.

[11] = biological target: T11, Human Siglec-9 (human, UniProt Q9Y336 18-463); test: flow cytometry, CHO transfectants
T11 construct: On transfected CHO cells; also on YTS and KHYG-1 transfectants, primary NK cells and moDC; also called huSiglec-9; CD329
Protocol: as §1

[12] = biological target: T12, Cynomolgus Siglec (cynomolgus); test: flow cytometry, CHO transfectants
T12 construct: Expressed on transfected CHO cells; also called Siglec-Cyno; cynoSiglec
Protocol: as §1

T4 sequence (chain, as listed by the source limits assumed): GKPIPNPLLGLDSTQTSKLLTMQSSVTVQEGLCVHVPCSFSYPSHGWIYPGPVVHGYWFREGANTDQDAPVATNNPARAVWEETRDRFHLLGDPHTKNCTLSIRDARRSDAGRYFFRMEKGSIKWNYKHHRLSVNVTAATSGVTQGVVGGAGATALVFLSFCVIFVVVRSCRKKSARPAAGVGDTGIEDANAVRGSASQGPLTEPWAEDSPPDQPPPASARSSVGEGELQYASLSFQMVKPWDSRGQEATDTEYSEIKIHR
T12 sequence (chain, as listed by the source limits assumed): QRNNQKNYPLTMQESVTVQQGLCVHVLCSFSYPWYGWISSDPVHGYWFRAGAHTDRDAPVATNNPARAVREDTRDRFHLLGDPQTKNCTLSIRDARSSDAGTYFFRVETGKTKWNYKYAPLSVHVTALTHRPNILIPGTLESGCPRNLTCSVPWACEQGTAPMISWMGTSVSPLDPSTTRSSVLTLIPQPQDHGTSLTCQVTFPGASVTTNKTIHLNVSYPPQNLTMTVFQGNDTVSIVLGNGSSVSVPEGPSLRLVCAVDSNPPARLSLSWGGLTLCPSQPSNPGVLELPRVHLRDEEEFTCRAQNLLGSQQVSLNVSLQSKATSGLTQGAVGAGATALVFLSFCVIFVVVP
T10 sequence (Q9Y286 19-467): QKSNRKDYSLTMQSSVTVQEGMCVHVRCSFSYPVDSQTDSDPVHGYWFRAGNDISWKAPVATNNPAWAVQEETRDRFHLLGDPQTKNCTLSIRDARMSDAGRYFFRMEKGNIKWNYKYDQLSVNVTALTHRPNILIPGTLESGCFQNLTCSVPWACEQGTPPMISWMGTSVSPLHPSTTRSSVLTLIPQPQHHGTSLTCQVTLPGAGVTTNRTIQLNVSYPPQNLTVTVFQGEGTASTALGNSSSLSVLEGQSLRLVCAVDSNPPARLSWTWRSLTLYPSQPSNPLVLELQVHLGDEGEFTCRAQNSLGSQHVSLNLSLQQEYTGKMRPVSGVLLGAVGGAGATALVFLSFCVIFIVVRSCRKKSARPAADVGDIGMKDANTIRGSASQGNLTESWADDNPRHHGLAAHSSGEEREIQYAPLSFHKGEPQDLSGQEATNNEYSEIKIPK
T9 sequence (Q9Y336 other isoform, or with tags, fused parts or gaps mutant): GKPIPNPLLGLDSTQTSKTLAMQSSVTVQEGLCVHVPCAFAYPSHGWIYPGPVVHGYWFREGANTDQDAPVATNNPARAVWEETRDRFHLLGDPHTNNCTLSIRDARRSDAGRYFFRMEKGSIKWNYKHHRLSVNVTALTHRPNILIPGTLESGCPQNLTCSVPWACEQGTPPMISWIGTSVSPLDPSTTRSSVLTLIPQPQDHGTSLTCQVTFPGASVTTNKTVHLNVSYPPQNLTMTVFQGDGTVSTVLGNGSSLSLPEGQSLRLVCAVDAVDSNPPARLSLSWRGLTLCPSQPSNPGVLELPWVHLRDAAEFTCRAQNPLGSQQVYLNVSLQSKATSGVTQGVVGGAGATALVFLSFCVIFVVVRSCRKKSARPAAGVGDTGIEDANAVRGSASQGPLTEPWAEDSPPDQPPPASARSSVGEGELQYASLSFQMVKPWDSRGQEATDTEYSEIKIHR
T6 sequence (Q9NYZ4 17-499): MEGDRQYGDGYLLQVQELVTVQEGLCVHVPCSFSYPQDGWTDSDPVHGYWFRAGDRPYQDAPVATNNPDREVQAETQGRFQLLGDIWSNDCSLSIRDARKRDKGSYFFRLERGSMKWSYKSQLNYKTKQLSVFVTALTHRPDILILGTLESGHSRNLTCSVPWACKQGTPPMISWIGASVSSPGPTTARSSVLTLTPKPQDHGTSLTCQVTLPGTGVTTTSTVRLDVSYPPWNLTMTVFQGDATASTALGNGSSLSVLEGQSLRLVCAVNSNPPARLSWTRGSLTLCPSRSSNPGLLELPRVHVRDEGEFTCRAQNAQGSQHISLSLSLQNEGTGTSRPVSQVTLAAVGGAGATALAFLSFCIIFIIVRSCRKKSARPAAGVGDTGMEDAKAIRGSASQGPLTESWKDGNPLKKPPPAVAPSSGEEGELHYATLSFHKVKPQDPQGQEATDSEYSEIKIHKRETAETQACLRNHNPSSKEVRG
T7 sequence (O43699 other isoform, or with tags, fused parts or gaps): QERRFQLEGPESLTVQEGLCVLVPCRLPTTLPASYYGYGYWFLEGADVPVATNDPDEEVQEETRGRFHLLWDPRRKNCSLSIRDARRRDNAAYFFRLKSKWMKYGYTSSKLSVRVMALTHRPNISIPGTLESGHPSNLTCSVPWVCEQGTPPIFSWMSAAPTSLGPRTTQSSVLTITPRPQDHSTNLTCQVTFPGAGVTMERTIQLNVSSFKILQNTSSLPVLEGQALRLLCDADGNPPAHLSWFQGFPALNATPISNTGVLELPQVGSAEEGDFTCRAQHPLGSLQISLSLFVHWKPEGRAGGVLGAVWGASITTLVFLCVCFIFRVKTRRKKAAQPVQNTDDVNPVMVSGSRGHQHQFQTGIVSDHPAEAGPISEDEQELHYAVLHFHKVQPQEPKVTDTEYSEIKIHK
T8 sequence (P20138 18-364 R69G): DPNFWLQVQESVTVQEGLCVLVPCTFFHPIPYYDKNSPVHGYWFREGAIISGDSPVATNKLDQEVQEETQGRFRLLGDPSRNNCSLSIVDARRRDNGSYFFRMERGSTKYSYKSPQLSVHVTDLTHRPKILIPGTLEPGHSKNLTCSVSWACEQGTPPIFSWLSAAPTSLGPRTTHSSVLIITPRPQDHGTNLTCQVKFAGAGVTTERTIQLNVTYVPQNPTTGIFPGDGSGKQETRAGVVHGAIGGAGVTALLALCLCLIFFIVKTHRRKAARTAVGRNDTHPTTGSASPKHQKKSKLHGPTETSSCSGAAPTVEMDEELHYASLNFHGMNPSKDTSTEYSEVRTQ
T5 sequence (Q96PQ1 19-595): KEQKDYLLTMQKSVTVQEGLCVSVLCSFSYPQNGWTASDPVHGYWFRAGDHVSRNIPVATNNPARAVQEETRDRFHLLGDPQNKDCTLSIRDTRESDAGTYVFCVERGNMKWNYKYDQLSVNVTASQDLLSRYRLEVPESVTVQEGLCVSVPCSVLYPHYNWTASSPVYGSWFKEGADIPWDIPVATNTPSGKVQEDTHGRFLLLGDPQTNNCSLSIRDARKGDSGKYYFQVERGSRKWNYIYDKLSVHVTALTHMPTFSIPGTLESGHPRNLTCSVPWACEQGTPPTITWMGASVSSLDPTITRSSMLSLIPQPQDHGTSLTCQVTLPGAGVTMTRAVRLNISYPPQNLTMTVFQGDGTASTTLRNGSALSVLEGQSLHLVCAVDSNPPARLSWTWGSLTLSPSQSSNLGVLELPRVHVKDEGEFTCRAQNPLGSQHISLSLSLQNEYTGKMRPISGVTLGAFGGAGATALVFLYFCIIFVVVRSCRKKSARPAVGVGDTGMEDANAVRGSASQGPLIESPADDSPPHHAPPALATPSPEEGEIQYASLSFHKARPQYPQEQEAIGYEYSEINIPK
T11 sequence (Q9Y336 18-463): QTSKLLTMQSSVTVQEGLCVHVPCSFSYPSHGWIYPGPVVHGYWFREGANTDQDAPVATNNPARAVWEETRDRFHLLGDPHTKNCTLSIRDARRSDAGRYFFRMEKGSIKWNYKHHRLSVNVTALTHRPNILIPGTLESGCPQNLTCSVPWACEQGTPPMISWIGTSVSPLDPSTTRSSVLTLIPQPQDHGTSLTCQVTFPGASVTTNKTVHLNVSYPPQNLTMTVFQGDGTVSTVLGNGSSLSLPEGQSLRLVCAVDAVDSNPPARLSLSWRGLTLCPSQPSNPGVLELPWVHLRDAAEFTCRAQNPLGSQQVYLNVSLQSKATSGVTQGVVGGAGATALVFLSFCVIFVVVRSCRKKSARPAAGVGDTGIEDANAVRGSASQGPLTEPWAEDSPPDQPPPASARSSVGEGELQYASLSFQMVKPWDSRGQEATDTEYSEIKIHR

Row | Binder | binding result [1] | binding result [2] | binding result [3] | binding result [4] | binding result [5] | binding result [6] | binding result [7] | binding result [8] | binding result [9] | EC50 [10] | EC50 [11] | EC50 [12]
1 | mAb1 (antibody, human IgG1, V domains shown) VH: DVQLQESGPGLVKPSQSLSLTCTVTGYSITGGFAWNWIRQFPGNTLEWMGYIGYGGSTSYNPSLNSRISITRDTSKNHFFLQFNSVTTDDSATYYCARGDYLFAYWGQGTLVTVSA VL: DIVMTQSHKFMSTSVGDRVSITCKASQDVNTAVAWYQQKPGQSPKLLIYSASYRYTGVPDRFTGSGSGTDFTFTISSVQAEDLAVYYCQQHYSTPRTFGGGTKLEIK | binds | binds | no binding | no binding | no binding | no binding | no binding | no binding | binds | 0.21 µg/mL | 0.11 µg/mL | 0.67 µg/mL
2 | mAb3 (antibody, human IgG1, V domains shown) VH: EVQLLETGPGLVKPSQSLSLTCTVTGYSITGGFAWNWIRQFPGNTLEWMGYIGYGGSTSYNPSLNSRISITRDTSKNHFFLQFNSVTTEDSATYYCARGDYLFAYWGQGTLVTVSA VL: DILMTQSPASLSASVGETVSITCRASGNIHNYLAWYLQRQGKSPQLLVYNAKTLADGVPSRFSGTGSGTQFSLKINSLQPEDFGSYYCQHFWSTPRTFGGGTKLEIK | binds | binds | no binding | no binding | no binding | no binding | no binding | no binding | binds | 0.22 µg/mL | 0.23 µg/mL | 0.85 µg/mL
3 | mAb2 (antibody, human IgG1, V domains shown) VH: EVQLQESGPGLVKPSQSLSLTCTVTGYSITGGFAWNWIRQFPGNTLEWMGYIGYGGSTSYNPSLNSRISITRDTSKNHFFLQFNSVTTEDSATYYCARGDYLFAYWGQGTLVTVSA VL: DIVMTQSHKFMSTSVGDRVSITCKASQDVNTAVAWYQQKPGQSPKLLIYSASYRYTGVPDRFTGSGSGTDFTFTISSVQAEDLAVYYCQQHYSTPRTFGGGTKLEIK | binds | binds | no binding | no binding | no binding | no binding | no binding | no binding | binds | 0.17 µg/mL | 0.08 µg/mL | 0.53 µg/mL
4 | mAb5 (antibody, human IgG1, V domains shown) VH: EIQLQQSGPELEKPGASVKISCKASGYSFSDYNMNWVKQSNGKSLEWIGNIDPYYGATSYNQRFKGKATLTVDKSSSTAYMQLKSLTSEDSAVYYCARGDSLFAYWGHGTLVTVSA VL: DIVMTQSQEFMSTSLGDRVSVTCKASQNVGTNVAWYQQKPGQSPKALLYSASSRYSGVPDRFTGSGSGTDFTLTISNVQSEDLAEYFCQQYITYPYTFGGGTKLEIK | – | no binding | no binding | no binding | no binding | no binding | no binding | no binding | – | 0.22 µg/mL | 0.26 µg/mL | 0.14 µg/mL
5 | mAbF (antibody, human IgG1, V domains shown) VH: QVQLQQSGPEVVRPGVSVKISCKGSGYTFTDYSMHWVKQSHAKSLEWIGVISTYNGNTNYNQKFKGKATMTVDKSSSTAYMELARLTSEDSAIYYCARRGYYGSSSWFGYWGQGTLVTVSA VL: DIVMTQSQKFMSTSVGDRVSVTCKASQNVGTDVAWYQQKPGQSPEALIYSASYRYSGVPDRFTGSGSGADFTLTISNVQSEDLAEYFCQQYNSFPYTFGGGTKLEIK | binds | no binding | no binding | no binding | no binding | no binding | no binding | no binding | binds | – | – | –
6 | mAb6 (antibody, human IgG1, V domains shown) VH: EIQLQQSGPELEKPGASVKISCKASGYSFSDYNMNWVKQSNGKSLEWIGNIDPYYGATSYNQRFKGKATLTVDKSSSTAYMQLKSLTSEDSAVYYCARGDSLFAYWGQGTLVTVSA VL: DIVMTQSQEFMSTSLGDRVSVTCKASQNVGTNVAWYQQKPGQSPKALLYSASSRYSGVPDRFTGSGSGTDFTLTINNMQSEDLAEYFCQQYITYPYTFGGGTKLEIK | – | no binding | no binding | no binding | no binding | no binding | no binding | no binding | – | 0.33 µg/mL | 0.31 µg/mL | 0.17 µg/mL
7 | mAb4 (antibody, human IgG1, V domains shown) VH: DVQLVESGGDLVKPGGSLKLSCAASGFAFSSYDMSWVRQSPEKRLEWIAHIGSGGGNIYYPDTVKGRFTISRDNAKNTLYLQMRSLKSEDTAMYYCARLIFTTGFYGMDYWGQGTSVTVSS VL: DIQMTQTTSSLSASLGDRVTISCRASQDISSYLNWYQQKPDGTIKLLIYYTSRLHSGVPSRFSGSGSGTDYSLTISNLDQDDIATYFCQQGNALPWTFGGGTKLEIK | – | no binding | no binding | no binding | no binding | no binding | no binding | no binding | – | 0.17 µg/mL | 0.28 µg/mL | 0.17 µg/mL
